One block for each molecule: values may come before it.
Tests used:
[1] = molecular target: T1, hSET8 (Homo sapiens, UniProt Q9NQR1); assay: isothermal titration calorimetry, wild-type and mutant histone H4 peptides with hSET8; assay type: binding; settings: ITC; for histone H4 binding / affinity of hSET8 for mutant histone H4 peptide: 20° C., pH 7.0, saturating AdoHcy; for AdoHcy binding: hSET8 with His-18 mutant H4 peptide
T1 construct: A construct of hSET8 encoding residues 191-352 was cloned into the parallel expression vector pHIS2; hexahistidine tag with TEV cleavage site (pHIS2 vector) (N); made in house; host or cells: Escherichia coli BL21 (DE3) Codon Plus RIL
T1 sequence (Q9NQR1 191-352 isoform Q9NQR1-2): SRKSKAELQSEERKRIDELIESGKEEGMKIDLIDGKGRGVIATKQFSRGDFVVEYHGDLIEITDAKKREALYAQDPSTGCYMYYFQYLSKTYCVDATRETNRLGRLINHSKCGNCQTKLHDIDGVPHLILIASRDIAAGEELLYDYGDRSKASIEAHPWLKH
Method: The equilibrium dissociation constants of wild type and mutants of hSET8 and histone H4 were determined using a VP-ITC calorimeter (MicroCal, LLC). […] A saturating concentration of AdoHcy (1.0-2.0 mM) was used in all titrations. ITC data were subsequently analyzed using Origin 7.0 (OriginLab Corp.) with blank injections of ligand into buffer subtracted from the experimental titrations prior to data analysis.

[2] = tested on: Lys-20 in histone H4; assay: MALDI mass spectrometry of methyltransferase reactions (product specificity); assay type: biochemical
Method: Histone methyltransferase assays were performed with wildtype hSET8 and the Tyr-245 and Tyr-334 mutants (5 μM) as described above and were quenched after 15 min or 24 h by the addition of 0.5% trifluoroacetic acid. Aliquots of the samples were cocrystallized with α-cyano-4-hydroxycinnamic acid (1:1), applied on the target, and dried at room temperature. The mass spectra were acquired on the TofSpec 2E MALDI-TOF mass spectrometer (Waters, Inc.) in reflectron mode, with each spectrum representing the average of 50 laser shots. Close external calibration was used based on the following mixture: bradikinin fragment 1-8, m/z=904.41 (for [M+H]+); angiotensin II, m/z=1046.54; [Glul]-fibrinopeptide B, m/z=1570.68; ACTH (clip 18-39), m/z=2465.20.

[3] = tested on: their cognate substrates; settings: radiometric assay, literature values; cited from earlier work

Molecule: H18A: histone H4 peptide (residues 15-24) with His-18 mutated to alanine (Ac-AKRARKVLRD-NH2; UniProt P62805 16-25, looked up, variant H18A)
histone H4 binding / affinity of hSET8 for mutant histone H4 peptide [1]: completely abolishes binding | histone H4 binding / affinity of hSET8 for mutant histone H4 peptide ([1]; listed as His-18 to alanine): completely abolishes both histone H4 binding and methylation | AdoHcy binding [1]: severely abrogate AdoHcy binding

B2: human SET7/9: human histone H3 Lys-4-specific methyltransferase (protein, UniProt Q8WTS6 1-366, looked up)
Histone-lysine …: MDSDDEMVEEAVEGHLDDDGLPHGFCTVTYSSTDRFEGNFVHGEKNGRGKFFFFDGSTLEGYYVDDALQGQGVYTYEDGGVLQGTYVDGELNGPAQEYDTDGRLIFKGQYKDNIRHGVCWIYYPDGGSLVGEVNEDGEMTGEKIAYVYPDERTALYGKFIDGEMIEGKLATLMSTEEGRPHFELMPGNSVYHFDKSTSSCISTNALLPDPYESERVYVAESLISSAGEGLFSKVAVGPNTVMSFYNGVRITHQEVDSRDWALNGNTLSLDEETVIDVPEPYNHVSKYCASLGHKANHSFTPNCIYDMFVHPRFGPIKCIRTLRAVEADEELTVAYGYDHSPPGKSGPEAPEWYQVELKAFQATQQK
turnover number [3]: 0.004 s⁻¹

B3: Drosophila SU(VAR)3-9: H3 Lys-9-specific histone methyltransferase (protein, UniProt P45975 1-635, looked up)
Histone-lysine …: MATAEAQIGVNRNLQKQDLSNLDVSKLTPLSPEVISRQATINIGTIGHVAHGKSTVVKAISGVQTVRFKNELERNITIKLERLSEKKIKNLLTSKQQRQQYEIKQRSMLRHLAELRRHSRFRRLCTKPASSSMPASTSSVDRRTTRRSTSQTSLSPSNSSGYGSVFGCEEHDVDKIPSLNGFAKLKRRRSSCVGAPTPNSKRSKNNMGVIAKRPPKGEYVVERIECVEMDQYQPVFFVKWLGYHDSENTWESLANVADCAEMEKFVERHQQLYETYIAKITTELEKQLEALPLMENITVAEVDAYEPLNLQIDLILLAQYRAAGSRSQREPQKIGERALKSMQIKRAQFVRRKQLADLALFEKRMNHVEKPSPPIRVENNIDLDTIDSNFMYIHDNIIGKDVPKPEAGIVGCKCTEDTEECTASTKCCARFAGELFAYERSTRRLRLRPGSAIYECNSRCSCDSSCSNRLVQHGRQVPLVLFKTANGSGWGVRAATALRKGEFVCEYIGEIITSDEANERGKAYDDNGRTYLFDLDYNTAQDSEYTIDAANYGNISHFINHSCDPNLAVFPCWIEHLNVALPHLVFFTLRPIKAGEELSFDYIRADNEDVPYENLSTAVRVECRCGRDNCRKVLF
turnover number [3]: 0.11 s⁻¹

B4: mouse G9A: histone H3 Lys-9/27 methyltransferase (protein, UniProt Q9Z148 1-1263, looked up)
Histone-lysine …: MRGLPRGRGLMRARGRGRAAPTGGRGRGRGGAHRGRGRPRSLLSLPRAQASWAPQLPAGLTGPPVPCLPSQGEAPAEMGALLLEKEPRGAAERVHSSLGDTPQSEETLPKANPDSLEPAGPSSPASVTVTVGDEGADTPVGAASLIGDEPESLEGDGGRIVLGHATKSFPSSPSKGGACPSRAKMSMTGAGKSPPSVQSLAMRLLSMPGAQGAATAGPEPSPATTAAQEGQPKVHRARKTMSKPSNGQPPIPEKRPPEVQHFRMSDDMHLGKVTSDVAKRRKLNSGSLSEDLGSAGGSGDIILEKGEPRPLEEWETVVGDDFSLYYDAYSVDERVDSDSKSEVEALAEQLSEEEEEEEEEEEEEEEEEEEEEEEEEDEESGNQSDRSGSSGRRKAKKKWRKDSPWVKPSRKRRKREPPRAKEPRGVNGVGSSGPSEYMEVPLGSLELPSEGTLSPNHAGVSNDTSSLETERGFEELPLCSCRMEAPKIDRISERAGHKCMATESVDGELLGCNAAILKRETMRPSSRVALMVLCEAHRARMVKHHCCPGCGYFCTAGTFLECHPDFRVAHRFHKACVSQLNGMVFCPHCGEDASEAQEVTIPRGDGGTPPIGTAAPALPPLAHDAPGRADTSQPSARMRGHGEPRRPPCDPLADTIDSSGPSLTLPNGGCLSAVGLPPGPGREALEKALVIQESERRKKLRFHPRQLYLSVKQGELQKVILMLLDNLDPNFQSDQQSKRTPLHAAAQKGSVEICHVLLQAGANINAVDKQQRTPLMEAVVNNHLEVARYMVQLGGCVYSKEEDGSTCLHHAAKIGNLEMVSLLLSTGQVDVNAQDSGGWTPIIWAAEHKHIDVIRMLLTRGADVTLTDNEENICLHWASFTGSAAIAEVLLNAQCDLHAVNYHGDTPLHIAARESYHDCVLLFLSRGANPELRNKEGDTAWDLTPERSDVWFALQLNRKLRLGVGNRAVRTEKIICRDVARGYENVPIPCVNGVDGEPCPEDYKYISENCETSTMNIDRNITHLQHCTCVDDCSSSNCLCGQLSIRCWYDKDGRLLQEFNKIEPPLIFECNQACSCWRSCKNRVVQSGIKVRLQLYRTAKMGWGVRALQTIPQGTFICEYVGELISDAEADVREDDSYLFDLDNKDGEVYCIDARYYGNISRFINHLCDPNIIPVRVFMLHQDLRFPRIAFFSSRDIRTGEELGFDYGDRFWDIKSKYFTCQCGSEKCKHSAEAIALEQSRLARLDPHPELLPDLSSLPPINT
turnover number [3]: 0.024 s⁻¹

More lines, main results first:

histone H4 binding / affinity of hSET8 for mutant histone H4 peptide [1]: modestly affects the affinity | AdoHcy binding [1]: severely abrogate AdoHcy binding
Molecule: H18F: histone H4 peptide (residues 15-24) with His-18 mutated to phenylalanine (Ac-AKRFRKVLRD-NH2; UniProt P62805 16-25, looked up, variant H18F)
histone H4 binding / affinity of hSET8 for mutant histone H4 peptide ([1]; listed as His-18 to phenylalanine): does not impact the affinity to nearly the same extent as the H347F substitution

methylation state of Lys-20 after reaction with the H4 peptide ([2]; 24 h): complete conversion to monomethyl-Lys-20
B1: wild-type hSET8: construct of hSET8 encoding residues 191-352, catalytic SET domain (protein, UniProt Q9NQR1 191-352, looked up, fragment)
chain: AAIAKQALKKPIKGKQAPRKKAQGKTQQNRKLTDFYPVRRSSRKSKAELQSEERKRIDELIESGKEEGMKIDLIDGKGRGVIATKQFSRGDFVVEYHGDLIEITDAKKREALYAQDPSTGCYMYYFQYLSKTYCVDATRETNRLGRLINHSKCGNCQTKLHD
product specificity ([2]; MALDI mass spectrometry): bona fide histone H4 Lys-20 monomethylase

Reference: patent US7504234B2, “Assays for S-adenosylmethionine (AdoMet)-dependent methyltransferase activity” (The Regents of the University of Michigan, priority 2006, dated 2009)
